Measured values published in publication PMC6582607, “Development of a novel ssDNA aptamer targeting neutrophil gelatinase-associated lipocalin and its application in clinical trials”.
Changes are numbered by the printed parent chain.

B1: NA42 (ssDNA)
DNA: AGCAGCACAGAGGTCAGATGCCGTGCGGATGTACAGGGACTTGGATAGTTTCTGACCTATGCGTGCTACCGTGAA
B2: NA36 (ssDNA)
DNA: AGCAGCACAGAGGTCAGATGCCCATATGCTACTTTGCACACATCCTGGATAGGCTCCTATGCGTGCTACCGTGAA
B3: NA53 (ssDNA)
DNA: AGCAGCACAGAGGTCAGATGGCGCTGGATAGCAAGATCACGTTATCATCGTAAACCCTATGCGTGCTACCGTGAA
B4: NA37 (ssDNA)
DNA: B2 DNA
B5: NA40 (ssDNA)
DNA: B3 DNA
B6: NA39 (ssDNA)
DNA: B3 DNA
B7: NA27 (ssDNA)
DNA: B3 DNA with A47G

Each binder was assayed against T1, NGAL (neutrophil gelatinase-associated lipocalin) (UniProt P80188 21-198) (assay: magnetic bead pull-down, qPCR; binding buffer (composition and pH not in material), room temperature, 1 h, NGAL-coated magnetic beads (about 0.20 ug NGAL per uL beads)).
T1 sequence (P80188 21-198): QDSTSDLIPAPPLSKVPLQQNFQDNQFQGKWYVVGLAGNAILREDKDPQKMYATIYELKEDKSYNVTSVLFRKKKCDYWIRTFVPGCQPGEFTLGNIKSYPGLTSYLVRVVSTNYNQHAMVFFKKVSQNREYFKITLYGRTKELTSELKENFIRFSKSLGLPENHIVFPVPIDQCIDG

| Binder | Kd |
| --- | --- |
| B1 | 66.5 nM |
| B2 | 43.6 nM |
| B3 | 32.5 nM |

These binders were tested against T1, NGAL (neutrophil gelatinase-associated …) (assay: magnetic bead pull-down, qPCR; 20 nM; binding buffer (composition and pH not in material), room temperature, 1 h, NGAL-coated magnetic beads (about 0.20 ug NGAL per uL beads)).

| Binder | binding signal |
| --- | --- |
| B4 | > 4 dCt (cycles vs bare beads) |
| B5 | > 4 dCt (cycles vs bare beads) |
| B6 | > 4 dCt (cycles vs bare beads) |
| B7 | > 4 dCt (cycles vs bare beads) |
